{"source": "patent US20220348635A1", "about": "“COMPOSITIONS AND METHODS FOR NEUROLOGICAL DISEASES” (Coda Biotherapeutics, Inc., priority 2019, published 2022)", "molecules": {"B1": {"name": "Y115D, L131Q in SEQ ID NO: 33: CR-11 (Chemogenic receptor-11): SEQ ID NO: 33 with substitutions Y115D and L131Q (protein)", "chain": "MRCSPGGVWLALAASLLHVSLQGEFQRKLYKELVKNYNPLERPVANDSQPLTVYFSLSLLQIMDVDEKNQVLTTNIWLQMSWTDHYLQWNVSEYPGVKTVRFPDGQIWKPDILLDNSADERFDATFHTNVQVNSSGHCQYLPPGIFKSSCPMDLKNFPMDVQTCKLKFGSWSYGGWSLDLQMQEADISGYIPNGEWDLVGIPGKRSERFYECCKEPYPDVTFTVTMRRRMGYYLIQMYIPSLLIVILSWISFWINMDAAPARVGLGITTVLTMTTQSSGSRASLPKVSYVKAIDIWMAVCLLFVFSALLEYAAVNFVSRQHKELLRFRRKRRHHKSPMLNLFQEDEAGEGRFNFSAYGMGPACLQAKDGISVKGANNSNTTNPPPAPSKSPEEMRKLFIQRAKKIDKISRIGFPMAFLIFNMFYWIIYKIVRREDVHNQ", "modifications": "synthetic sequence of chimeric LGIC"}}, "type_in_all_cases": "cell-based", "key": {"[1]": {"assay": "YFP quench plate reader assay, response to AZD-0328", "details": "LX293T YFP reporter cells", "method_in_brief": "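Anion-flux assay: channel opening admits iodide, quenching a co-expressed YFP reporter in LX293T cells transfected with engineered receptor mutants. Ligands were applied at several doses from 2× solutions in NaI-substituted ECS.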"}, "[2]": {"assay": "High throughput electrophysiology in HEK293T cells, acetylcholine", "protocol": "To confirm the EC50s determined by plate reader as well as develop a better understanding of maximum current flow, the engineered receptors were subjected to high throughput electrophysiology system, as described below. For HEK293T studies, cDNAs encoding ion channels were cloned into pcDNA3.1 using standard recombination techniques. HEK293T cells from Clontech (Lenti-X™ 293T Cell Line) were cultured in DMEM supplemented with 10% FBS and 1% Pen/Strep to 40-50% confluence using standard cell culture protocols, transfected with ion channel plasmids at a concentration of 18 μg per 15 cm dish using Fugene 6, and grown for an additional 24 hours. Cells were then assayed on a electrophysiological system (IonFluxHT and/or Mercury, Fluxion Biosciences) in which dose-response relationships may be assessed through a microfluidics-based platform for establishing whole cell configurations. […] Data were then analyzed off-line using custom Python scripts to convert data to .csv format, re-plot traces, and apply QC measurements to reject unstable recordings (i.e. thresholding based on access resistance and/or standard deviation in baseline, as well as artifact rejection). Peak currents were then calculated and population data were fit using a 4-parameter logistic equation as described by the Hill Equation. […]"}, "[3]": {"assay": "Manual patch clamp, HEK cell line, acetylcholine", "details": "HEK293 cells and cultured rat DRG sensory neurons", "protocol": "FIG. 2A-FIG. 2B show the concentration-response curves of CR-11 (Chemogenic receptor-11, an engineered receptor comprising an amino acid sequence having the amino acid substitutions of Y115D and L131Q in SEQ ID NO: 33) expressed in HEK 293 cells to acetylcholine as well as to non-native ligands RG-3487 (SA-2, Synthetic Agonist-2). The responses were evaluated using manual patch clamp electrophysiology. Currents were normalized to unity for the maximal response. The continuous line through the data points is the best fit obtained with the Hill equation, and EC50s for each ligand are estimated from the concentration-response curves.\nUsing whole cell manual patch clamp electrophysiology in HEK293 cells and rat DRG neurons, the EC50 of the various engineered receptors disclosed herein to Ach and non-native ligands was measured. The rheobase shift was also measured in rat DRG neurons, which reflects the efficacy of the receptors. To calculate the rheobase, first, the amount of current that can produce an action potential was determined. Then the ligand was added, followed by a step wise increase in the current injected up to 700 pA. […] The EC50 was calculated using the Hill equation with peak current measurements from escalating doses of ligand."}, "[4]": {"assay": "Manual patch clamp, rat DRG neurons, Facinicline/RG3487", "details": "cultured adult rat DRG neurons expressing the receptor; not observed in non-transduced cells", "protocol": "Using whole cell manual patch clamp electrophysiology in HEK293 cells and rat DRG neurons, the EC50 of the various engineered receptors disclosed herein to Ach and non-native ligands was measured. The rheobase shift was also measured in rat DRG neurons, which reflects the efficacy of the receptors. To calculate the rheobase, first, the amount of current that can produce an action potential was determined. Then the ligand was added, followed by a step wise increase in the current injected up to 700 pA. The current injected after addition of the ligand was divided by, the original current injected to obtain an action potential, to calculate the rheobase. The EC50 was calculated using the Hill equation with peak current measurements from escalating doses of ligand."}}}
{"molecule": "B1", "values": [{"measurement": "percent quench of YFP fluorescence, 100 nM azd", "setting": "[1]; 100 nM AZD-0328", "result": 12.15, "unit": "%"}, {"measurement": "percent quench of YFP fluorescence, 300 nM azd", "setting": "[1]; 300 nM AZD-0328", "result": 30.92, "unit": "%"}, {"measurement": "percent quench of YFP fluorescence, 30 uM azd", "setting": "[1]; 30 uM AZD-0328", "result": 68.65, "unit": "%"}, {"measurement": "fold reduced potency to acetylcholine compared to wild type receptor", "setting": "[2]", "result": "over 500 fold"}, {"measurement": "sensitivity / potency to acetylcholine", "setting": "[3]", "result": "essentially insensitive"}, {"measurement": "chloride current on application of RG-3487 (SA-2)", "setting": "[4]", "result": "generated chloride current in a dose dependent manner"}]}
